Earlier results in US7338947B2, “Cyclic derivatives as modulators of chemokine receptor activity” (Bristol-Myers Squibb Co., priority 2003, dated 2008).

Tested on: MCP-1 expression in peripheral blood mononuclear cells
Details: human multiple sclerosis, effective therapy

B1: interferon b-1b: interferon b-1b, effective therapy in human multiple sclerosis (protein, UniProt P01574 22-187, looked up, variant C17S)
Interferon beta: MSYNLLGFLQRSSNFQSQKLLWQLNGRLEYCLKDRMNFDIPEEIKQLQQFQKEDAALTIYEMLQNIFAIFRQDSSSTGWNETIVENLLANVYHQINHLKTVLEEKLEKEDFTRGKLMSSLHLKRYYGRILHYLKAKEYSHCAWTIVRVEILRNFYFINRLTGYLRN
modifications: interferon beta-1b
  MCP-1 expression in peripheral blood mononuclear cells: reduces MCP-1 expression
